{
  "source": "patent US20050013867A1",
  "about": "“Use of proton sequestering agents in drug formulations” (priority 2001, published 2005)",
  "key": {"[1]": {"experiment": "Degradation rate of parathyroid hormone in solution ± disodium citrate, by high pressure liquid chromatography", "type": "physicochemical", "conditions": "1 mg/mL parathyroid hormone ± disodium citrate, pH 3, 40° C.", "experimental": "Determine the degradation rates of parathyroid hormone (1 mg/mL; 0.24 mM)±disodium citrate at pH 3 at 40° C. In separate aliquots, incubate with the following amounts of disodium citrate ([…]; 57.3 μg/mL, 0.24 mM; and 5.73 μg/mL, 0.024 mM). Include a control aliquot containing parathyroid hormone lacking disodium citrate. High pressure liquid chromatography is used to measure the degradation of parathyroid hormone at various time points."}, "[2]": {"conditions": "aqueous solution, general indicator of proton affinity, cited from earlier work"}},
  "note": "Where two headings read alike, the source gives them in different places.",
  "data": [
    {"substance": "parathyroid hormone", "values": [
      {"measurement": "retention of activity (degradation by HPLC)", "setting": "[1]", "value": "retains more activity in the citrate solution"},
      {"measurement": "pKa of C-terminal carboxylate", "setting": "[2]", "value": "≈ 3.5"},
      {"measurement": "pKa of carboxylate sidechains of aspartic and glutamic acid", "setting": "[2]", "value": "≈ 4.8"},
      {"measurement": "pKa of C-terminal carboxylate", "setting": "[2]; listed as PTH", "value": 3.5},
      {"measurement": "pKa of carboxylate sidechains of aspartic and glutamic acid", "setting": "[2]; listed as PTH", "value": 4.8}
    ]}
  ]
}
